Measured values from publication PMC9184524, “Structural Basis for pH-gating of the K^+ channel TWIK1 at the selectivity filter” (Nature Communications, 2022).

Molecular target: the molecule itself
Test: cryo-EM structure; TWIK1 in MSP1D1 nanodiscs (2:1:1 DOPE:POPS:POPC), 20 mM HEPES pH 7.4, 150 mM KCl, 1 mM EDTA; C2 symmetry imposed; homodimer

B1: Rattus norvegicus TWIK1 (natural protein)
chain: MLQSLAGSSCVRLVERHRSAWCFGFLVLGYLLYLVFGAVVFSSVELPYEDLLRQELRKLKRRFLEEHECLSEPQLEQFLGRVLEASNYGVSVLSNASGNWNWDFTSALFFASTVLSTTGYGHTVPLSDGGKAFCIIYSVIGIPFTLLFLTAVVQRVTVHVTRRPVLYFHIRWGFSKQVVAIVHAVLLGFVTVSCFFFIPAAVFSVLEDDWNFLESFYFCFISLSTIGLGDYVPGEGYNQKFRELYKIGITCYLLLGLIAMLVVLETFCELHELKKFRKMFYVKKDKDEDQVHIMEHDQLSFSSITEQAAGLKEEQKQNEPFVASQSPPYEDGSANHSNSLEVLFQ
notes: TWIK1 (K2P1.1, KCNK1), Rattus norvegicus, Uniprot Q9Z2T2, full length; gene codon-optimized for Pichia pastoris; W20-Y281 modeled at pH 5.5, G24-F280 at pH 7.4; linker SNS and the part of the human rhinovirus 3C site (LEVLFQ/GP) left on the C-terminus after cleavage of EGFP-His10; cleaved on the resin with PPX before SEC and nanodisc reconstitution (MSP1D1 at pH 7.4, MSPE3D1 at pH 5.5); also …
B1 was tested, and the “stoichiometry N” value was 2.
